Measurements taken from the supplement of paper PMC12636428.

System: Saccharomyces cerevisiae
Assay: transcriptional activation domain activity (GFP:mCherry ratio, weighted mean of sorted bins, harmonized to initial dataset scale) (arbitrary fluorescence ratio units); higher = stronger transcriptional activation
Details: beta-estradiol 1 µM; induction time 4 h
How it was run: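 The listed activation activity is a read-weighted mean of bin median fluorescence, averaged across barcodes and linearly mapped onto the initial dataset scale. Barcoded tiles, fused to an estradiol-inducible synthetic transcription factor, were integrated at URA3 in yeast diploids bearing a GFP reporter. Cells were held 4 hours at 30 °C in SC with 1 uM beta-estradiol, sorted into 8 GFP:mCherry bins, and sequenced, and tiles with fewer than 50 reads were excluded.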

Row | Sequence | transcriptional activation domain activity
1 | KQRKAELIHHVVPLAVAAAFSIFLSGEDLEGPRIYHSMASLKVLRRLVAVISS | 54400
2 | MCIFFCPVSSLEVIWSVFLVFFYGYIFFTFFFLQCRSMVLIIPFLFTLVFHIF | 42700
3 | MLWGNVGTSIKIWYGVFFCYCSIVLFRSSLYIINFFLLCFFFFFVFFLWFFYH | 44400
4 | GLCYCHSIKLRHLLIPMEKLYLMGLILVQCYNGVLHSMLFGARYEFLPLMLTS | 71000
5 | STACILLILVRYLGLIALVLNIIGFFSHEFTMESCQYYWRFMPIMQCFASWAS | 61800
6 | AKLESCNPRAYLDPSTAPIATMARGNQRDKAREANLKKQAAQKKGNSMSGTEM | 44300
7 | MEHLVYHAPGVLPKMECRPPFRLCLLLLILFLFLFLCCQKVPLWIFACRFCCG | 41200
8 | SLPFHCTLLLVVINLIAVVAILWTRFASKLLGSSVCAFLYIFVGTFTILIHVR | 20500
9 | MSSNFFGASNNAGQGSGTGASAPLFGAPKPADGGAAPAVGGLFGAKPAASGTG | 27300
10 | FEHKELKLCPYFNFTFCVYFRLSNPFAKQYHITPTCFCGQNVTINRTYREGKN | 62800
11 | FFLVLIYCPFPSFGPDLSLPFPSPFLSLHLLITILLSPLSPFYLFLFYFTSPS | 84300
12 | MAPTTPTNSNGETPVKRGRGRPPKPEHEKKLKPAPSGRGRGRPKGSGVKKTGG | 39100
13 | LWYRFQVVMIRRYHFHFHLLGYRMTYLRFIQFLNIWYFFIAIACLLFIIVIGA | 46300
14 | LIHVVNLAQVLAVLIHRTVYGLLPIFEVMSCAIFPFLVSMWHIAFLLMYTVML | 45700
15 | IISGAGSNMERELFYCLQNVRFRGPLLRVILLVLKACWLLKNLWVYWLIVYHR | 45800
16 | DKPKTKPAAAKAKPKSATTKAKPASKASAKPSSKAGAKKPASKKATAAAAAKK | 12000
17 | RTSDRYLETLDALFVDKFVYAHAWTTFMSTCLKTWRRDCCSSAMLLLLHILCF | 54900
18 | VSRLHAKIEYEEEEERFVLVVIGRNGAWVDGVWSGASSRVPLGERSQIQIASR | 65500
19 | VCVRVDWPWLSFPTALVLLTVVLFVTVLVIARRSQVSEGQPIWKSSSIVAFFH | 41100
20 | MSSHDGYRTRRTPQACVACRRRKTKCDGARPRCRHCASRHRQCVWPDVAEGAS | 39900
21 | ATHPDYIDPHNAMDYLSNDGGDSYNLCHFWSNFEIADMDFWRSDAYQAFFDFL | 150000

Row | Sequence | transcriptional activation domain activity
22 | MLIGTVFLICSLNLCLLFLGWAWGCIVLYLDDLNILLLSCLFTFFLCTFTFFS | 40900
23 | ILCLSFSIKVLLCFLLIFFPLNVEPPPPDFFFHFLCLWFFFVISFLRFHLLYF | 59900
24 | MILLPSLWLLSLVVIFPVCYFYIQKSFPFPSSLFCIVCPITIYIINILSSHVL | 33900
25 | GLRDNVIENRQGKKGAGKAAAAGGAGAAAANTNAATGGKAAKAAKAAAAGGSG | 48900
26 | LHRLHLARVTVDKEGKLVSTTNMTILNLWLVWRGPMREDRLTIEITLFQAFVG | 26400
27 | HLGHEAQASIEEEEEEEEEEEEEEEEEERRGEGGSVRKATHKIAAATVASVGT | 33300
28 | YFWVLGAIPYFVFHSAFCLLWSLFFWFSCWYLSFKILLFRCFFFLFYYSMPSQ | 55200
29 | QLALFRWCAKMCGDVLSARDLVILGCRILLRCLRSYAWDFLFGHLLFALRLVR | 72000
30 | MSLFSPCGETPLFLFPLFALTGLAPVLPPGSPLFFYLTLPLSFSFFHFFIFFF | 79500
31 | PAGDNKAPRKEGARANNRPRDNDAPRGPRYDRTPRDGDAASRAPRGARAPRGA | 41700
32 | MYGYCLLFYLFLFSFISLFYFYFYFYILYFLLLILIFFYFTTVLVSFHFILFF | 43400
33 | MGNGSVLLFLLFLCYGKGLGFFIFTFFFLFYLCIIYFFFPLFYYYLPLLSAGW | 67100
34 | EDTVHSVRVKAHRMKKSESGETGWAELGVGVLRLKTHKETASRRMLLRNSGNG | 58000
35 | SRDRDRKEKTDKTDKDRERDREKERRGEREREREKERERERAERHRERDRERE | 32800
36 | YLIILILFCFCHLWELDRWAHSLASQEKLRYSCVIGLTIFRLRCPLSLTKDAP | 48900
37 | GEGAGGRDSTKTGAKAAGTGSTASKQPSNSASGGGQGKKKQPSATSAAGRKIA | 59000
38 | MGGFFLFFFFFSFVDSFGVVYDMDMRSGGVFFFLPFLSTLFFLLLLGSVLFSC | 71600
39 | DDPGATPHDPNDPKRPRACEACRGLKVKCEPDPSNPDGPCKRCAKAGRNCVVT | 16300
40 | MGKGGYGEQRGGGRGGFRGGRGGGRGGFGGGGFNQGPPSEVVVVGTFVSACEG | 58400
41 | VTCFGILCFLLSALYLCIGFDPFINQLLYCGVLWLFQGIYFVLFGMKVALHFQ | 36200
42 | LWQYMEFRILVYIFFGLSFIPLSIFLLFCTCLSSFIFFVAAGIWLFVGTIAFF | 54200

Row | Sequence | transcriptional activation domain activity
43 | AKSNKRRRASAPSSNTFKGSKRSASNASSQSKASNSNRVIKRARRASSASTKK | 20900
44 | SATIFSPFDTHLLEPVPSSSSESSAEVMFHGKQMKNFLIDINSFTNQQQQAQD | 38700
45 | MFIFFKILILILLINIISITSFRLGAMLHYCIGHWDCMGNYLDCVFRLGFLFI | 59000
46 | EAEIGVAAEDKISPQKARRKAKVEKEDGKAEEGAEGQKTTKRRRKTKEEKEEE | 14900
47 | KQYCVRPNSGRIEPGGEVDVQILLQAMKEDPPADAKCRDKFLVQSVLVTADKE | 50100
48 | QLRLFQFDRLVEELLPLVHTHFIRKGIKSSMFASQWFMTLFSYRFPLSLVYRV | 66200
49 | ATGLAWGVWGKKGAPRFRGSCAERFDTLSSTEWKGSRLVRLVARFDNTVRSVP | 45600
50 | MNQTSCFFPPFFLFSFFFFLFFFPFPHSSSLPSFFFSFPSISPLFTSFSVSSL | 35200
51 | MYTHALDPHDAANGLYSCLPCFYIFISTDDVARKIVLVPCIPLLKYALHAIQL | 61900
52 | MADRGTGAGGEGRGRGGFGRGGRGRGGPRGRGGRGGRGGRKDEEKEWVPVTKL | 24800
53 | DNTPVLQEYLAVFRHLLSFHDPELSSHLDTIGFMPDLYAIPWFLTLFTHVFPL | 64500
54 | MVFGHWCVSRLSHNSQILFLLTMLSFPVCENFFGFICNFIILLFARRTLFFVL | 59500
55 | ANRCSFFALEFSVGISWSTVGADFYVYYPTNTSKRLTFFMTWAGLWISLIFVN | 47200
56 | AAKPKDRIKYWNIVPGDRVRITGDKEGKLLEVAKINKLSNRVYLKGATTKAGS | 44400
57 | ATDCAVKALRALQILMDHPTFPYDACLDLWHRCWPWMHFVHTFWKYLPGFVTG | 57200
58 | KRRRWQLALLLLFWFAWLATFITVIHNSRFVSKVNGQDPYLLSCTSVLWSKNN | 47100
59 | RSRAEGGSSPGRGGSEDGAGAGKPGKERRDKSRGARAKQCGCKAVNQDKSCEC | 21900
60 | FVLYFFFFFFLFFFFASGLVFFIRLFFFCAVFSASPYSCCCYYFNCAYPIYVL | 55700
61 | VCLSLYIITCVFGWLLYFITATLSYYYVFDHDYMKHPKFLKNQIRLEINCAAS | 76600
